Drawing on article PMC5031558 (2016), this text covers Kd and koff for two molecules.

Sequences and labels used below:
T1: CYLD USP domain L622D (human, UniProt Q9NQC7 583-956, L622D)
T1 sequence: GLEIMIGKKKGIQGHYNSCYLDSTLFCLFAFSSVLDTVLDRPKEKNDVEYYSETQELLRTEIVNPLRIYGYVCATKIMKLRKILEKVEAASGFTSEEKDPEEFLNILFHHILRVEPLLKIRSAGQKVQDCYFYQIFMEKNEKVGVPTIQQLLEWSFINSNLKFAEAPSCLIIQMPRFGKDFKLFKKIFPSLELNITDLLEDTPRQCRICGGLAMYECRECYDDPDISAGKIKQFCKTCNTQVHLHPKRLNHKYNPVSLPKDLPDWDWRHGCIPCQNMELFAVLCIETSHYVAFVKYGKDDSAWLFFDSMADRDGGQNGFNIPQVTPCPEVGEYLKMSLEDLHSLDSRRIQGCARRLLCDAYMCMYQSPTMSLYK

T2: CYLD USP domain I790D (human, UniProt Q9NQC7 583-956, I790D)
T2 sequence: T1 sequence with D40L, I208D

B1: SPATA2 PUB domain (aa 1–241) (domain or fragment)
chain: MGKPSSMDTKFKDDLFRKYVQFHESKVDTTTSRQRPGSDECLRVAASTLLSLHKVDPFYRFRLIQFYEVVESSLRSLSSSSLRALHGAFSMLETVGINLFLYPWKKEFRSIKTYTGPFVYYVKSTLLEEDIRAILSCMGYTPELGTAYKLRELVETLQVKMVSFELFLAKVECEQMLEIHSQVKDKGYSELDIVSERKSSAEDVRGCSDALRRRAEGREHLTASMSRVALQKSASERAAKD
B2: CYLD USP domain (aa 583–956) (domain or fragment)
chain: T1 sequence with D40L

In experiment [1] the target is T1, CYLD USP domain L622D. In words: SPR; equilibrium. A general note: SPR reads the build-up and loss of mass on a sensor chip optically.
The target of experiment [2] is CYLD ΔB-box (purified USP domain without the B-box) (human, UniProt Q9NQC7 592-950). In words: SPR; equilibrium.
The target in experiment [3] is T2, CYLD USP domain I790D. Nature of the experiment: SPR; kinetic.
In experiment [4] the target is T2, CYLD USP domain I790D. In words: SPR.
In experiment [5] the target is B1. In words: SPR; kinetic.
For experiment [6], the target named is B1. In words: SPR.

Numbering of substitutions follows the chain as printed.

As a reminder, the Kd is the free concentration of one partner at which half of the binding sites on the other are occupied at equilibrium, for simple one-to-one binding. A lower Kd goes with a tighter complex. A word on the koff: it is the first-order rate constant of dissociation. A higher koff goes with a short-lived complex. Take B1: the Kd in experiment [1] is more than 60000 nM; in experiment [2], more than 100000 nM; in experiment [3], 585 nM. The molecule also had a koff in experiment [4] of 0.086 s⁻¹.

Regarding B2, binding in experiment [5] was put at a Kd of 84 nM. In addition, the koff in experiment [6] was determined as 0.02 s⁻¹.
